These results are taken from article PMC11021482.

This assay concerns the target T1, CXCR2 of mouse DRG neurons (mouse (endogenous in DRG)) (UniProt P35343).
T1 sequence: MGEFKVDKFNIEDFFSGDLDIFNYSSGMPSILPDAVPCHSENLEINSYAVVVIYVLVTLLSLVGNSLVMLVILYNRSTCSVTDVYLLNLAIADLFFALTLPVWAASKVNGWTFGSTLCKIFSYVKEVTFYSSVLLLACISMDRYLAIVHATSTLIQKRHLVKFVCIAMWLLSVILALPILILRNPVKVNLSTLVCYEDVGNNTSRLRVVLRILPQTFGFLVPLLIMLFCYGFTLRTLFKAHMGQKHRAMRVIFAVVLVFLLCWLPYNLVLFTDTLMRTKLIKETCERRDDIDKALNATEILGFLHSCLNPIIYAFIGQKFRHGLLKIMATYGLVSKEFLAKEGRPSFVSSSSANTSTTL

B1: recombinant mouse CXCL5 (ligand)
chain: APSSVIAATELRCVCLTVTPKINPKLIANLEVIPAGPQCPTVEVIAKLKNQKEVCLDPEAPVIKKIIQKILGSDKKKAKRNALAVERTASVQ
As for B1, the EC50 of the Ca^2+ response of cultured mouse DRG neurons to CXCL5 (Fura-2 imaging, dose-response) was found to be 24.8 nM.
